Data: patent US20200247855A1, “THERAPY AND DIAGNOSTICS” (OXFORD UNIVERSITY INNOVATION LIMITED, priority 2017, published 2020)
Numbering of substitutions follows the chain as printed. Entries after “also recorded” stand apart in the source; their conditions may differ.

B1: SEQ ID NO: 80: two-warhead evasin: P1156_IXORI linked via GGGGS linker to P991_AMBCA (protein)
chain: ADDDNELFTVQYCGMNCTKDEGGTWTGCTGKKEGCKCYHESGKNYGLCLSTEYTDFSQYGNPSDSEIEAAKPKRSDTLSHGGGGSENGEGTTQPDYDNSTDYYNYEDFKCTCPAPHLNNTNGTVMKPIGCYYTCNVTRCTAPDTYPCYNLTEHQAKNLTTSPTTLCAVGNCDHGICVPNGTKELCFKAPNLEE
modifications: hybrid polypeptide
notes: two-warhead evasin: P1156_IXORI linked via GGGGS linker to P991_AMBCA
B2: P985_AMBPA: tick CKBP, Amblyomma parvum (protein, listed as Amblyomma parvum)
chain: DEESEELGASTDVDYEELDANCTCPAPALTSTRNNKHYPLGCIYNCSSYNCTIPDGTPCYVLTLGEVKEHLQIGSTVPNCTCGLCRNGTCVSNGTVEECFAVEEIEET
B3: SEQ ID NO: 81: two-warhead evasin: P1156_IXORI linked via GGGGS linker to P1243_AMBAM (protein)
chain: ADDDNELFTVQYCGMNCTKDEGGTWTGCTGKKEGCKCYHESGKNYGLCLSTEYTDFSQYGNPSDSEIEAAKPKRSDTLSHGGGGSRNHTEDNSTEYYDYEEARCACPARHLNNTNGTVLKLLGCHYFCNGTLCTAPDGYPCYNLTAQQVRTLTTYPNTSCAVGVCMKGTCVKNGTMEQCFKTP
modifications: hybrid polypeptide
notes: two-warhead evasin: P1156_IXORI linked via GGGGS linker to P1243_AMBAM
B4: P942_IXORI: novel CXC-binding tick CKBP, Ixodes ricinus (protein, listed as Ixodes ricinus)
chain: NQLSGPQSSANSNEAVFCDTNCTQGTDEAWSGCRGDCFCVYVGNSTEGRCMMLSGDFDYSTPGAED
B5: P675_IXORI: novel CXC-binding tick CKBP, Ixodes ricinus (protein, listed as Ixodes ricinus)
chain: GSNQLSGPQSSANSNDAVFCDTNCTQGTDGAWSGCRGDCFCVHVGNSTEGRCIELIGDFDYSTPGAED
B6: P974_AMBCA: tick CKBP, Amblyomma cajennense; ACA-01 stated identical (protein)
chain: ENTQQEEQDYDYGTDTCPFPVLANKTNKAKFVGCHQKCNGGDQKLTDGTACYVVERKVWDRMTPMLWYECPLGECKNGVCEDLRKKEDCRKGNGEEK
modifications: Amblyomma cajennense
notes: tick CKBP, Amblyomma cajennense; ACA-01 stated identical
B7: P546_AMBCA: tick CKBP, Amblyomma cajennense (protein)
chain: B6 chain with Q8E, E69S, D88E
modifications: Amblyomma cajennense
B8: P1078_IXORI: novel CXC-binding tick CKBP, Ixodes ricinus (protein, listed as Ixodes ricinus)
chain: GSKGSSAQQSSHDSIKAEFCETNCTMKTGGKWTQCHGGCFCVHVGNETVGRCIKLDGDYDYPSSKHEE
B9: P1090_IXORI: novel CXC-binding tick CKBP, Ixodes ricinus (protein, listed as Ixodes ricinus)
chain: GSKELSGPESSENSIEAAFCDTNCTEGTDGVWSGCSAGCFCVHVGNSTVGRCMTFNGVDGG
B10: SEQ ID NO: 73: two-warhead evasin: P991_AMBCA linked via GGGGS linker to P1156_IXORI (protein)
chain: ENGEGTTQPDYDNSTDYYNYEDFKCTCPAPHLNNTNGTVMKPIGCYYTCNVTRCTAPDTYPCYNLTEHQAKNLTTSPTTLCAVGNCDHGICVPNGTKELCFKAPNLEEGGGGSADDDNELFTVQYCGMNCTKDEGGTWTGCTGKKEGCKCYHESGKNYGLCLSTEYTDFSQYGNPSDSEIEAAKPKRSDTLSH
modifications: hybrid polypeptide
notes: two-warhead evasin: P991_AMBCA linked via GGGGS linker to P1156_IXORI

Assays:
[1] = tested on: human CCL5 together with CXCL8, CXCL1, CCL3 or CCL2; test: Biolayer interferometry polyvalent binding (association with CCL5, then CCL5 plus second chemokine); conditions: BLI, wavelength shift in association 2
From the text: FIG. 10. Polyvalent binding of CC and CXC chemokines to two-warhead evasins. […] This was followed by association with CCL5+CXCL8 (light grey trace), or with CCL5+CXCL1 (dark grey trace) or CCL5+CCL3 (black trace) (association 2), and then dissociated in buffer (dissociation).
FIG. 11. Polyvalent binding of CC and CXC chemokines to two-warhead evasins. […] This was followed by association with CCL5+CXCL8 (light grey trace), or with CCL5+CXCL1 (dark grey trace) or CCL5+CCL2 (black trace) (association 2), and then dissociated in buffer (dissociation).
The ability of 2-warhead evasins to engage in polyvalent binding of CC and CXC chemokines was further determined.

CCL5_HUMAN = molecular target: T1, CCL5_HUMAN (Homo sapiens, UniProt P13501); test: Biolayer interferometry (BLI) binding
T1 sequence (P13501 24-91): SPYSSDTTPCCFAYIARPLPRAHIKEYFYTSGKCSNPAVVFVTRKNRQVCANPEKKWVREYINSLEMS
Method in brief: (§1)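 His-tagged purified tick CKBP captured on Ni-NTA sensors (Octet Red384); chemokine first screened at 300 nM, then binders re-run across several chemokine doses. Kd derived from fitted association, equilibrium and dissociation curves, reported in molar units.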

CCL4_HUMAN = molecular target: T2, CCL4_HUMAN (Homo sapiens, UniProt P13236); test: Biolayer interferometry (BLI) binding
T2 sequence (P13236 24-92): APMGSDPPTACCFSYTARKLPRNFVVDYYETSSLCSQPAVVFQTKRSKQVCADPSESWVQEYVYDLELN
Method in brief: as §1

CCL16_HUMAN = molecular target: T3, CCL16_HUMAN (Homo sapiens, UniProt O15467); test: Biolayer interferometry (BLI) binding
T3 sequence (O15467 24-120): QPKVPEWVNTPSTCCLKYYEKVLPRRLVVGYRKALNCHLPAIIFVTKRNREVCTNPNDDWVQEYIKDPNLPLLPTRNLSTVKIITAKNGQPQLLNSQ
Method in brief: as §1

CCL7_HUMAN = CCL7_HUMAN (Homo sapiens, UniProt P80098); test: Biolayer interferometry (BLI) binding
Method in brief: as §1

CCL3_HUMAN = molecular target: T4, CCL3_HUMAN (Homo sapiens, UniProt P10147); test: Biolayer interferometry (BLI) binding
T4 sequence (P10147 24-92): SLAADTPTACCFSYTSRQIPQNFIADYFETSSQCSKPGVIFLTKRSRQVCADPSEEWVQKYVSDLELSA
Method in brief: as §1

CCL18_HUMAN = molecular target: T5, CCL18_HUMAN (Homo sapiens, UniProt P55774); test: Biolayer interferometry (BLI) binding
T5 sequence (P55774 21-89): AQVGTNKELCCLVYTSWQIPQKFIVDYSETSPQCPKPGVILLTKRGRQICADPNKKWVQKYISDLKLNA
Method in brief: as §1

CCL8_HUMAN = molecular target: T6, CCL8_HUMAN (Homo sapiens, UniProt P80075); test: Biolayer interferometry (BLI) binding; conditions: read-out: Kd, CCL8_HUMAN
T6 sequence (P80075 24-99): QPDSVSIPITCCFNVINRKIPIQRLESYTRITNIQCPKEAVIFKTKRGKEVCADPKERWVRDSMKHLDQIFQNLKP
Method in brief: as §1

CCL2_HUMAN = CCL2_HUMAN (Homo sapiens, UniProt P13500); test: Biolayer interferometry (BLI) binding
Method in brief: as §1

CCL1_HUMAN = molecular target: T7, CCL1_HUMAN (Homo sapiens, UniProt P22362); test: Biolayer interferometry (BLI) binding
T7 sequence (P22362 24-96): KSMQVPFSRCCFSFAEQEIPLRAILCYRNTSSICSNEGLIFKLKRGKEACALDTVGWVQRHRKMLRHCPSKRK
Method in brief: as §1

CCL4L1_HUMAN = molecular target: T8, CCL4L1_HUMAN (Homo sapiens, UniProt Q8NHW4); test: Biolayer interferometry (BLI) binding
T8 sequence (Q8NHW4 24-92): T2 sequence (P13236 24-92) with S47G
Method in brief: as §1

CCL13_HUMAN = CCL13_HUMAN (Homo sapiens, UniProt Q99616); test: Biolayer interferometry (BLI) binding
Method in brief: as §1

CCL11_HUMAN = CCL11_HUMAN (Homo sapiens, UniProt P51671); test: Biolayer interferometry (BLI) binding
Method in brief: as §1

CCL24_HUMAN = molecular target: T9, CCL24_HUMAN (Homo sapiens, UniProt O00175); test: Biolayer interferometry (BLI) binding
T9 sequence (O00175 27-119): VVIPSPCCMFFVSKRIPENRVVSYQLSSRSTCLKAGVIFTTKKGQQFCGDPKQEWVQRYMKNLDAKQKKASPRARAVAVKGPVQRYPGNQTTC
Method in brief: as §1

CCL3L1_HUMAN = CCL3L1_HUMAN (Homo sapiens, UniProt P16619); test: Biolayer interferometry (BLI) binding
Method in brief: as §1

CXCL11_HUMAN = molecular target: T10, CXCL11_HUMAN (Homo sapiens, UniProt O14625); test: Yeast surface display (YSD) FACS binding; conditions: FACS re-test; mean percent shift where several clones
T10 sequence (O14625 22-94): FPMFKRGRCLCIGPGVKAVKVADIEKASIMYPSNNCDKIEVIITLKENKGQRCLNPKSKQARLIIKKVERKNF
Method in brief: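 Yeast clones displaying tick peptides were re-tested by FACS with labelled chemokine detected by streptavidin-Alexa conjugate. Binding was scored as % of peptide-expressing cells above a background set with streptavidin-Alexa alone, averaged over independent clones. In the screen tables, >3-fold over background mean fluorescence intensity was scored as binding.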

CCL14_HUMAN = molecular target: T11, CCL14_HUMAN (Homo sapiens, UniProt Q16627); test: Biolayer interferometry (BLI) binding
T11 sequence (Q16627 20-93): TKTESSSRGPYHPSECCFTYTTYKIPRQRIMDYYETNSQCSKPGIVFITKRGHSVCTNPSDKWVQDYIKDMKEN
Method in brief: as §1

CCL22_HUMAN = molecular target: T12, CCL22_HUMAN (Homo sapiens, UniProt O00626); test: Biolayer interferometry (BLI) binding
T12 sequence (O00626 25-93): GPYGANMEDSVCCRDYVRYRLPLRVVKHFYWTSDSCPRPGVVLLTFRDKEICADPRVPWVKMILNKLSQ
Method in brief: as §1

CCL17_HUMAN = molecular target: T13, CCL17_HUMAN (Homo sapiens, UniProt Q92583); test: Biolayer interferometry (BLI) binding
T13 sequence (Q92583 24-94): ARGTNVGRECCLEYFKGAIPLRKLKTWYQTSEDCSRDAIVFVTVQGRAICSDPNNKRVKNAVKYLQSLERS
Method in brief: as §1

chemokines = conditions: list of chemokines bound, from the literature [18,20-22]; cited from earlier work

Sequence of CCL13_HUMAN (Q99616 17-98): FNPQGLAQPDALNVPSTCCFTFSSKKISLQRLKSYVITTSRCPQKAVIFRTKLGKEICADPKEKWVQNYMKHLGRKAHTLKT
Sequence of CCL3L1_HUMAN (P16619 24-93): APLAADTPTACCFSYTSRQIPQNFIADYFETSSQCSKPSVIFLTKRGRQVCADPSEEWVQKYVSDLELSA
Sequence of CCL11_HUMAN (P51671 24-97): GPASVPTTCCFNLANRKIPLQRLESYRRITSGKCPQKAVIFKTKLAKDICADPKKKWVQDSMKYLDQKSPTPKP
Sequence of CCL2_HUMAN (P13500 24-99): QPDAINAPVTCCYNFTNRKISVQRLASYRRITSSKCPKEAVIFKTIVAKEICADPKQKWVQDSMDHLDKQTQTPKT
Sequence of CCL7_HUMAN (P80098 24-99): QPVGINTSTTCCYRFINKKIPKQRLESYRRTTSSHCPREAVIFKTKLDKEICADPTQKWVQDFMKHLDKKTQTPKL

Molecule	Polyvalent (simultaneous) binding of CC and CXC chemokines [1]	Kd (CCL4_HUMAN) [nM]	Kd (CCL7_HUMAN) [nM]	Kd (CCL3_HUMAN) [nM]	Kd (CCL18_HUMAN) [nM]	Kd (CCL8_HUMAN) [nM]	Kd (CCL2_HUMAN) [nM]	Kd (CCL1_HUMAN) [nM]	Kd (CCL4L1_HUMAN) [nM]	Kd (CCL13_HUMAN) [nM]	Kd (CCL11_HUMAN) [nM]	Kd (CCL3L1_HUMAN) [nM]	Chemokines bound in yeast surface display and % cells over threshold fluorescence: CXCL11_HUMAN (CXCL11_HUMAN)	also measured
B1	can associate simultaneously with CCL5 and either CXCL8 or CXCL1	–	–	–	–	–	–	–	–	–	–	–	–	–
B2	–	46	61	8.9	430	6.5	17	8.3	21	89	8	7.5	–	Kd (CCL5_HUMAN): 3.5 nM; Kd (CCL16_HUMAN): 45 nM; Kd (CCL24_HUMAN): 41 nM
B3	can associate simultaneously with CCL5 and either CXCL8 or CXCL1	–	–	–	–	–	–	–	–	–	–	–	–	–
B4	–	–	–	–	–	–	–	–	–	–	–	–	CXCL11_HUMAN 37%	–
B5	–	–	–	–	–	–	–	–	–	–	–	–	CXCL11_HUMAN 55%	–
B6	–	30.2	41.2	7.97	17	2.58	93	70.5	23.2	22.9	17	13.1	–	Kd (CCL5_HUMAN): 160 nM; Kd (CCL14_HUMAN): 49.1 nM; Kd (CCL22_HUMAN): 16.5 nM; Kd (CCL17_HUMAN): 70.6 nM; Previously described chemokine binding (chemokines): CCL11, CCL24,; also recorded: CCL26, CCL2,; also recorded: CCL8, CCL7
B7	–	27	90	15	16	1.3	83	160	8.9	13	8.7	15	–	Kd (CCL14_HUMAN): 28 nM; Kd (CCL22_HUMAN): 27 nM; Kd (CCL17_HUMAN): 70 nM
B8	–	–	–	–	–	–	–	–	–	–	–	–	CXCL11_HUMAN 38%	–
B9	–	–	–	–	–	–	–	–	–	–	–	–	CXCL11_HUMAN 32%	–
B10	can associate simultaneously with CCL5 and either CXCL8 or CXCL1	–	–	–	–	–	–	–	–	–	–	–	–	–
